Results from the domain aggregation screens of Martell et al. (2025).

Test: soluble fraction after stress (log2 fold change); higher = more stays soluble; pooled small domains, quantitative proteomics
Conditions: stress: pH 4
Summary of the method: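 Small protein domains from pooled custom libraries were exposed to pH 4, then quantified with high-throughput quantitative proteomics. The fold change in how much of each domain remains soluble is read as aggregation propensity. It is given as log2, with higher values meaning more stayed soluble.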

| Sequence | soluble fraction (log2) |
| --- | --- |
| HMTVVHRQVHLQPDQGAFRAALYSHKAVLSEQTDDQGAINLEIRLPESDFLRLLNSSGLKLQDLVP | -0.512 |
| HMSESEDFQNRWRPWRSLLDDETPVVREALVDQLKLFPEEGRLFLQQMSEEDDPISARHAFELIKSLGW | -1.11 |
| HMYTPDYLSDLMVRMAHHSTAIEGNTLTQGETKSVLVDGYIPRAMDMRELNEVLNYKAFMTFLVE | -0.35 |
| HMISVENLSNREFEIFQLIGNGFSTKEMAKKLNLSIYTVESHKKNIKEKLKLKNSSDLSKYAIQWVIMQN | -1.35 |
| HMTFEPVYDENSRILILGTFPSVKSREQQFYYGHPQNRFWKLLAALTGWKVPKTISEKKELLLQNGIA | -0.665 |
| HMGNASQAARRQRIVDAALELLQDRPYDQIQMRDVAEGAGVALGTLYRYFPSKEQLFAHVLVE | -0.701 |
| HMEQVLNVAVRRGELIMSSAAEQTVRIYSSAGSMVWQGKVSASDVTVELPSGVYVVNGKKVV | -0.513 |
| HMEFNDLNDDEKAILHIMYNTGEKMTTALAARITNRGRNFASKLLKSLVKKEILEWHGTSKQDRNQYYTLA | -0.337 |
| HMRGFGEVGQLPSGRYRARYTGPDGGRHSAPITFVARIDAEGWLVDQERMISRGEWEPPARQ | -0.384 |
| HMSSEMATLRSIVDNKQAEKVHGMMVDMFTASAMVQVYDKVNDENQAKMREMLKTQKGFQRMADFALSKI | -0.535 |
| HMGMVEFEIGERDHSEDVSRKLFEAGLIEDASDFNQYMIEKKMDDHLQTGKYQIPKGATKDEILELIVR | -0.674 |
| HMDYINALTTAGITDAKVIVTAPFDVSGTAALTGIYKAYEDITGSSLNEIAKAVGVEELITTGNLA | 0.2 |
| HMLTTVAAQRAALHQEEDITKLREIILKLVPFWGLDGGAYADKETSIQLERQYRESFDQAVSAARRSGQA | -0.234 |
| HMEETLEELGKEYESAFTMYEKLWSYYKKQNYHQVNHKRSERYEILLGFVREYHPEKVEYYRELL | -0.482 |
| HMPTEAIVLQQIQIRQSPSGNSKSLQQILPGAKIKITSESSVKGWKQVSLDGGQKGWIPTAAIGL | 0.302 |
| HMSIGPQMAGRRVLSGDLIARLEAFEGTVVLGRGVAREDALLIATQAGHVRWEPASRRLWVDSTA | -0.0304 |
| HMTGSAETRGITLTDEQVTVWAKDGSWANYVYRATDGNWYDGSGRLYYENGGGEWTQAATGEQGS | -1.68 |
| HMKEPGFAPPVRALAAAPITVLAQVAGTNPGEIRARLRAAGYPVASDQQSVQSLVGGDLKAQIGVLNRILA | -0.0568 |
| HMGGLENNLKQARNRVGLTQSELARQAGISRQAYSSLESGAANPSTEVALRLAQALSERVESLFYLPE | -0.169 |
| HMNPLDGTSVHPESYEAAEKLLKKQGFSLEDISGGKLTGLSLTIKDYARLAKELEIGEITLRDIVKELEK | -0.747 |
| HMKEETYHYTVRYVTDGGDILASYEGKATKDSVFFPEVKTFDGYTAVRGEEPMFHLVSDHAVFQIVYQKNG | 0.204 |
| HMKAKTYTVQYIDEGKIIKEEELEEGSIINAPEVTKEGHTFIGWYEGEEKYDVYEPITRNLILESKNEIN | -0.989 |
| HMTTGGAEELGRTERKIVEQVGRGLSNREIAQVLGLSEGTVRNYLSTILGKLGLRDRTQLAIWSVQTGFAA | -0.371 |
| HMYSLSELERIKNFLTGYMSDYSIMMLDANEITNQVDISLKDYSDDNIESIKAAVLSHGGKTDYLNFIDDS | -1.01 |
| HMKWIEILKSKDGNYALLQDEKDTQFVVASGYNPDAAEDQKWGHGSYFIYWNNKENKAEMLMNAIDLFRYR | -1.34 |

| Sequence | soluble fraction (log2) |
| --- | --- |
| HMDLANLQNGQTLPLQRDVEVISIPFGKTISLSEDSVVSIMQAKGSSVSVAYEGRLYLIEGSNLDALGLEP | -0.888 |
| HMKAGRNTLARQMAILEVLQKDGRALVDDLAARFETTPQTIRKDLSALAEVNQISRFHGGAALVG | -0.279 |
| HMGQVPPLTRRETEIARLVSRGLSNKEIASTLVISPRTAEGHVEHILDKLGFSSRTQIATWLNEQTRNGK | 0.313 |
| HMAAIPATVDEETYRRLKPMLKQYGILYHEFKPLRSGKKGAVELIFMEKDLALVQELLSRLKKEK | -0.0159 |
| HMRPPLEWGTHGEITTRTVASGYVRASARVRLWDGELQRMTATASTASDARASLQHRIAERLRFSEL | -0.0592 |
| HMSTYTETETAYLKAYSAAGVDGKISDSERGILNMTAEALGITVERTTELEAMFNLTVEEEA | -1.39 |
| HMATVHPIRIQGGMTTQQGGKTVWLWVSDEGRLMTEDEIAGESGGTVSSRMVRGVRVLTGTGVIYG | -0.57 |
| HMYMTTADADMWKYVNTGRYNNDIQLMEEYKNRSMDSFEVITPEQQRKYNKAAMNLNSYYAWADPSYKPNP | -0.888 |
| HMNTDALIGKTGYVTEIVGERHGRIQFSGGEWSARTEGVSIPVGAEVRVDRIDGATAVVSAV | 0.22 |
| HMAKIEVENLEETILENLKANNGFMPYNDKTSPEEIYEVFHVSKKHFKNSLGGLMKKGLIFQNEKGTKL | -0.444 |
| HMAWIAVATKEDYSEYEWKELSPTTDWSTQTFDLGDLAGKTIYAVKMFFDHDTDVKDYKFNLGQLSITSN | -1.22 |
| HMLIDQYPYSIIYRLIPHGRSNAVPAAQIVGLTKLDERSIRIYVEAMRREGHIIASSSKGYYFPASIEE | -0.589 |
| HMTRQRQLIYNIIQRADDHPTAEMIYARAKAEMPSIAFGTVYRNLKLMVDAGEILHIPVAGEPDRYDK | 0.142 |
| HMGIRQGKVTSTFVNVRSGASTANAKVGELHKGDVVSLIEKVANFWRIGPGQFVSADYIQVLAS | -0.0122 |
| HMDSVTVPDISGYSPKAAEDSINNAGLKINEQGLSGSGDGQVVERTSPSAGSKVKKGDSVTVYYSKA | 0.104 |
| HMDVAWDAIKAKLKEVVDAEDKAHPLNDDQIVKALGESGITIARRTIAKYRDLLGIPPARKRKA | 0.0412 |
| HMTIERVKIKETPTGWLRVRETPDNNGSEIGRANVGEIYELLGSKGEWYHIVYKGKQGFISTKYAEKVL | -0.124 |
| HMPSLILADEPTGNLDSRNSSEVIALLKNASKRYAQTIIMITHNRSIAQSADRVLQVSDGVLTDMG | 0.0603 |
| HMHPEETVNLILDAAFRLFLEKGYEHTSIQDIIGQLGGLSKGAIYHHFNSKEDILIAVTDRMTA | -1.67 |
| HMEFTFTLPRGYIDDTGMIHREGTMRLANAADEILPLKDPRVQQNPGYLTIILLARVITKLGSL | -0.165 |
| HMEYEETMSQIKHNLNLLPRQQRVIIEMAKFDELTPAEIAKQLGISVQTVRNQLSTGLKKLRQLL | -0.373 |
| HMATPKYMELVRWINEQIESKNLVPGQKMYSENTLKEMFGVSRQTVRHAIGVLENEGVIRRIQGSGTYIN | 0.163 |
| HMPVTAQFDFSKVLAGRTLKDGEFSFVLKDKNGTVLQTKTNDASGKVAFDALIYKNNEVGEHKYTVEEVI | 0.294 |
| HMNEWSIDINLADEKQWTAKTKLSPAIIQNIIRYKNYLGGFTNLNQIKKVYGFTEANYYLLKPHLQLGK | -0.386 |
| HMDLVESYDLKIIYTSELINLLIDSSRLEEALNLFKDLKDEIDDVENLGFSAKNNLDYMESKLLHLG | -1.6 |

| Sequence | soluble fraction (log2) |
| --- | --- |
| HMIADPAKPDWTTILAPVTTGTTVTHKTFGQGTVTKLDKTKKYLTVSFAAGQKNFVFPNAFIDGFLK | -0.105 |
| HMEYYDDEELDRFRGVEADAYDEDAVNEFRDVLYTLQEIEVAGWLRSLQLRAINLPDELKDEAFLI | -2.01 |
| HMPPLVLRGVVMGADGARLAILAQGEAGAALGIGETWKEYTLRSVTDQSATLEHRSGTITLTR | -0.437 |
| HMYIEKTAYINDTAVNVRKSATTDSDVIKVLALNTEITIIGEENDWYKVKSGNDIGYIAKRLVSDQKKE | -0.109 |
| HMDNQSIVRINDGDGAWRQRLGEHFGHLPRDRKRGEIVLQVDAADWRWLQTQGYAPRFDAALSAQLQTTL | -0.147 |
| HMAPLAVIFPEPWRGMIAPEKLEGLTQALSLNPRPGYQHDPTRRYGVSLDGLDVRFTIDGDTLTVVEVVT | -1.12 |
| HMPLDYQELRNISPQAARQAILQILKANKGNVSQTARMLGITRKTVYKAMAKREAGNLDDGSRAPK | 0.265 |
| HMNILNFSENIIKLRHKKGITQEELADFVGVTKASVSKWETKQSLPDIMLLPRLAAYFDVTVDELLGYEP | -0.115 |
| HMTETSKLTDAKQLLESILSSGEVSYKDIISAAEEYEIGKRTLMSAKALLSIESIKKTDGWYWTLPH | -0.0778 |
| HMLKEGIKEKINQLQVYADKNDNIIWYDRVVDILSDKDDSVTDEMIEAAIRTLEEAGISVERKQ | -1.04 |
| HMESVQWSVFPSAKYVTIISFDPTTSGGSATAKFKVSDEARSKGFRFRIEAAIGEGIMRSEMYVIEE | -0.0704 |
| HMQPDFLDAKASLALLGVRPQTLYAYVSRGAIRSVPQPGTKAHLYSRSDIERVMARAAARAG | -0.019 |
| HMQLHDTMKRVYEALDISEQKLAESLGLKLSTIINWQKNGISKIGINKLNQTFGLDMQWILTGQGEPFI | -0.0735 |
| HMKTFSFEILADTVKKQRKAKGMTQAELSEATGINRSMIGQMENMTFKPSIEQLEALSQALDFNVIDLYTE | -0.767 |
| HMSEQMQVGELVFQLHRKAIKNLHINVLPPDGFVRVSAPQAMTETAIRTAVISRLPWIRRQQQAFAAQ | ≥ 0.43 |
| HMSTEDYLKTIYILESQQGVHGSDVARMLKVTRPTVSIALKALEQEGYVWMDESRLVHLTDSGLQIAKDT | 0.149 |
| HMSNHYETLGVPRDASQEDIKRAYRRLARKLHPDVAGPGKAEEFKAVNEAYAVLSDEESRRMYDLGGDDAL | 0.145 |
| HMESWNRARILEKIRELHAQGVALNNASMRRLGYRGMMEAAARPQNFGSWEAAVRAAGIDYDRV | 0.22 |
| HMQKNKSVLFKDIVIAFNQNPKKLFNYKQLAADLDIHSEAERMLISQLLNDLKDQNFLEEVERGKYKLKL | -0.479 |
| HMIYQEGMQVKYQGKEYVISEIQDYKTYKTIKLDDNEGYLNGFITGSEILSFRNESELDLEI | -0.785 |
| HMTGESIPFSKFLSEVDSGRVINVEIQGNNISGLLSDGNKFKTYSPNYPNLVEILSEKEVSIVATPLE | -0.166 |
| HMSKQEFVDRLRVSLSGKISPASVEDNARYYEDYINTHIRLGEPEEDVLEGLGDPRLIARSIVAAESV | -0.0405 |
| HMEAYDTMEDRTTLAPGFAKLDKRERYILHLRFFEGLTQSQIAERVGISQMHVSRLIRRSLEKLREEIGD | -0.4 |
| HMTDFESYTVRVTATNLNIRKGAGTNFHSAGYIKPGVYTIVEEADGKGATRWGKLKSGMGWISLDYAKK | 0.428 |
| HMPDAIPLETIIKNVNVLAGFLINSKTFTEDDIVMAYNNIMKIKGDHTDEKTLTNDVYTLLTEMN | -1.22 |
